{
  "source": "the DeepSol protein solubility set",
  "data": [
    {"assay": "soluble on expression in E. coli; label from the status in PepcDB or PDB records", "values": [
      {"sequence": "MKQADQTYRGQFKDDLYDGAGQLELADGSRYQGLFAKGKPNGAGVRSDASGNQFSGHFVNGQLQGAGTYDSVDGEQYIGEFKDNRLEGRGRYENADGDVWIGEFKDGSLIGEGELLGSDGSHYKGEFADWRLSGQGSLQLADGSKYIGGFLNDAYHGHGRLILPSGKVESGTWANGVRVRDQNGKLLPDPLDLALLNQGRLLDEALVRVPRSAPPIQLYSLVVAGDGQQSVFLREADYVSRMLKVRFGARGQVTLVNHRDHMATRPMATRENLSRAAATLAERSGPEDLVFIYLTSHGSQDHQLVLDQPRLQLADLAADELATALAPLKDRDKVIVISACYSGGYIAPLKDERTLIMTAARADRVSFGCSEEADFTYFGDALFAEALNQTDDLKQAFELARASVAEREQREGFEASEPQLWAPPAVLEHWHQLRQQQAEEALRNATQANVSKQAKMPGTHLEHHHHHH", "soluble on expression in E. coli": "soluble"},
      {"sequence": "MMKQGMANSISMTWQLLCDEHGFTREHYNQLKKFSPETLREIIAEIASCHPSTSVLLRNKWLTPPEDILEQITREYERRIQNCPPFRSEKEAESWLNELSFAVIAPLYRVAPEQTEQVESFVLQLIAEQERVWELILTNDGYSWHCALYDILFHLVLRNMEDQPEHQKQRITKIFYEPDARLVAEEIKFRIQSLYDDEQKRALSELVNDFTSKE", "soluble on expression in E. coli": "soluble"},
      {"sequence": "PNRRADDNATIRVTNLSEDTRETDLQELFRPFGSISRIYLAKDKTTGQSKGFAFISFHRREDAARAIAGVSGFGYDHLILNVEWAKPSTN", "soluble on expression in E. coli": "soluble"},
      {"sequence": "SQPLLDRSIPDFTAFTTVDDWLSAIKMVQYRDSFLTAGFTSLQLVTQMTSEDLLRIGITLAGHQKKILNSIHSMRVQISQSPTAMA", "soluble on expression in E. coli": "soluble"},
      {"sequence": "SNAMKTLFLQYPACSTCQKAKKWLIENNIEYTNRLIVDDNPTVEELKAWIPLSGLPVKKFFNTSGVVYKELKLSSKLPTMTEEEQIALLATNGKLVKRPLVVTERFVLVGFKPEEWEKLK", "soluble on expression in E. coli": "soluble"},
      {"sequence": "MSACAPVHRDPPAPASLRAMPGARWLSGVVLGGLSLGLMACGPKDIEGLRTADYLGGDQRSGVLTYRETPPMGGPYNPLWQTCAAYAQPVYNEYAVHSLARGAVWVTYRPGLDAAELDKLKALLAGQPAALLSPYPNLPAPVVMTAWNRQLSAQTADDPRLTRFLKEILPENSAPEKGSPCARGFGGTR", "soluble on expression in E. coli": "soluble"},
      {"sequence": "MKISIRHRYIAKIPALEVTTEEQKNEALPLIVYYHGWQSAKELSLTQARKLAHEGFRVILPDAMNHGERKTEPISTIPSITFWSSIQYNLIEFPVIIHHFHKLGLIKENWIGVGGVSMGGITTSALMTQHPEIQAAACLMGTPYPARYIQRVIQRAKEFAIFVPKDLPLLLSWVHQYDLSQTPERLQERPMLFWHGTEDEKIPYEDMADFEQLVSGKTYARNTQFITEIGERHLVKGETMDLVVDFFKEASKTLEK", "soluble on expression in E. coli": "not soluble"},
      {"sequence": "MGSDKIHHHHHHMGVYHRIRVSRQTTTLPNIILTKKMIAAKDKAPQLTPQEYFIWEEQQLEKHEYINGEVYAMTGGSVNHGRIAIRFTAMFDSHLQNTGCITGNSDIKVNIFGSNNYTYPDASVTCDVRDQTTTQYITYPCLIVEVLSKTTEAYDRGGKFRMYRQNPALIDYLLVSSTSVEIDLYHKNDAGDWLIINYKPGDTIELKSINLNFPIEKVYRGLTLEPENGG", "soluble on expression in E. coli": "not soluble"},
      {"sequence": "MKEKSIEDIVFEKFQPYINWSIDKLCEHFSINKGEKGLNYRIASAILNLKGKTTKSKPFPEVEEFEKSSIVVKTVHFNKKNVNKESMSFGAFKFEELANEEWEDSEGYPSAQWRNFLLETRFLFFVVKEDEDGVDIFKGIKFFSMPEEDINGPVKRMWDDTVKKLKEGVTLEAVPDKSTKDGWRIKNNFVDKSDDLICHVRPHTNNRDYRGGSNADKLPKKINWINRPDSDDYSDEWMTKQSFWINNDYIKKQVEDLL", "soluble on expression in E. coli": "soluble"},
      {"sequence": "MKTKIIGVLGLGIFGQTLAQELSNFEQDVIAIDSNPENVQAVAEVVTKAAIGDITDLAFLKHIGISDCDTVIIATGNSLESSVLAVMHCKKLGVPQVIAKARNLVYEEVLYEIGADLVISPERESGQNVAANLMRNKITDVFQIESDISVIEFKIPKSWVGKTVEQLNIRHKFDLNLIGIRKAKNKPVDTEVPINSPLEEGIILVAIANSDAFQRYDYLGYFNLEHHHHHH", "soluble on expression in E. coli": "soluble"},
      {"sequence": "MGSDKIHHHHHHMRKRRVYWTLFITAFAWLASCSDDDINGSSGFNPNQPIEITEFYPDSGGIATPMIIEGRNFGTDTTGMKVYFEDVDGIRHPAGLVSSNGSRIYAFVPKGLTFKREMNILVERRTPDGQEYIGKAPDQFLYKTQTSVSTVAGLASPDNNINTVGGDLATCTFSSPFYLCIDGEDNIFVVDRKGDSGKDKQPNTTCRNEKGEGVNGNISMISIASNSSIVLKYGTAYINAPAYSDEKDAEAVYIPDDAGMKYYDMQKLLNYVPRYRTVLKSEELSTVDENNWKHCFVINKLDHMIYTVMWKGQLVRINPKNRTAEILLKKISNVATGDGGKAGSDSYIAFSPIKGEENVLYVSLADFHQIWRVDVSKITPEDKDTYNGESYAGKAIYEGVMNGKGWEDGLLKNAKFRHPRQICFTDDGKMYIADSGNSCIRVIDTTMPKERAAVTTPIGLPGAEGYKDGGPEIAKFHFPCGVAVNSDGTIVYVADTQNKVIRKLSIE", "soluble on expression in E. coli": "not soluble"},
      {"sequence": "YTDRKNRIVEVDIASKAKRTVMQNPEGEFYEVNYSPDSQWITYTKSGANNMSVIYVYHLTSGKEYPVTE", "soluble on expression in E. coli": "not soluble"},
      {"sequence": "MFALEVLALERRTALLLGASGLVGGELLKLLLQSDLYRCVTIFVRTPLPVEHEKLQQVVVDFARLESYERYFYVDDVFCCLGTTRKKAKTKQQFIQVDYEYTLRAAALAEKCRAKSFLTVSSVGANPCSPFFYQRVKGETEEALQRLSIPSLHIFRPSLLVGKRREFRLGEALGGWLLCRLPFLFVGKWKKYKPVDAHQLALAMFYRAASATSGVHIYECDELARIS", "soluble on expression in E. coli": "not soluble"},
      {"sequence": "MGSDKIHHHHHHMQAEAQHPKAEQYRTARLSRDARFDGLFFVGVFSTGIFCRPICPAVPAKEANVRYFDDALSAAQAGLRPCLRCRPDSAPGSNPWLGKQTSLNRAMSLIDAGVLCGPQAIPMTGLAERLGISERYLRQLFHDSLGTSPKQYALYQQLMFAKQLLHQTKMPITQVAYAAGFNSVRRFNEIFRQQLQLTPSEIRKATGQPSLPVQGLTLKLAYRPPYDWQHLRSFFAQRAVPEMEWLDEQSYGRSFVLGAAKGYFCAVHSEQEACFHVTIHLAEADSLSQLKGIISHIRRILDLDADMLTIGDKLQALGKALPQVSPGLRLPGVWSPFEAACRAILGQQVSVTQAIKLLGQLVADHGETISLNEKTVRLFPTPAALVDASLDGLKMPGIRKEAIRALAAFVMANPESEIDDWLQIKGIGPWTLDYVRLRGLSLPDVLLVGDLVVKQQLLVNLRPEPSSCDGEPAEDEDPKAAKKRAQAQYQALSQAVLRQVAPWGSYLTLQLWNRQ", "soluble on expression in E. coli": "not soluble"},
      {"sequence": "MTELARLKFYATQPHSCSYLPEEQATTLFLDPSQPMDVHVYADLSEMGFRRSGDHLYRPHCQNCNACVPARIPAARFIPNRQQRRILKRNADLTVTAARPAFKEEYFELYRRYIETRHADGDMYPPSRDQFSTFLVRDLPFCWFYEFRLEGRLMAVAVCDLLPNGLSAVYTFYEPDEERRSLGRFAILWQITEALRQNLEAVYLGYWIKNCKKMNYKTQYRPIELLINQRWVTLNLEHHHHHH", "soluble on expression in E. coli": "not soluble"},
      {"sequence": "MNTGEMKINWVSRYMPLLNKIAEEYSREKPLSGFTVGMSIHLEAKTAYLAITLSKLGAKVVITGSNPLSTQDDVAEALRSKGITVYARRTHDESIYRENLMKVLDERPDFIIDDGGDLTVISHTEREEVLENLKGVSEETTTGVRRLKALEETGKLRVPVIAVNDSKMKYLFDNRYGTGQSTWDAIMRNTNLLVAGKNVVVAGYGWCGRGIALRAAGLGARVIVTEVDPVKAVEAIMDGFTVMPMKEAVKIADFVITASGNTDVLSKEDILSLKDGAVLANAGHFNVEIPVRVLEEIAVEKFEARPNVTGYTLENGKTVFLLAEGRLVNLAAGDGHPVEIMDLSFALQIFAVLYLLENHRKMSPKVYMLPDEIDERVARMKLDSLGVKIDELTEKQRRYLRSWQ", "soluble on expression in E. coli": "soluble"},
      {"sequence": "KKTFLTVRGNLTFNKDKIIENDEPPVDYPWMETRGTNVNATWGFIADGLFTSQAEIEDHATQFGTVHVGDIKYRDLNGDGVIDNYDKTVIGRGDVPRIYYGFGADLQIGDFSISALFQGTGQADRYLDGICIKPFWDDEGRDNVFANIHDRWSPDDPTNQDVFYPRMYVGSDANTNNVQKSSWWVKDVSFLRLKQLNISYNIPKKLLDRCFLKSASVYLMGTNLLTFSNFKLWDPELNTSNGTAYPNVSSYSVGVKFSF", "soluble on expression in E. coli": "not soluble"},
      {"sequence": "MATLDKFLSIKENDEKTKKKESKKKSSKSNKTSESLVSHDHFELTPEFENQLWKVADKLRKKMEVHQYKYVVLGLIFLRALTCRFYERRKEIEEELSNPNSELYTEDPELRKMILEDEDFYLSEGVLYLPKETRWDYFVENVMSPNIGEIIDTAIEILEEKYPDRLKDVIPKIYAQSPLDNHDYSYLINKFSEISFGKEHRVKDVFGRIYEYFLGKFTEVEGKLGGKFYTPRSLTKLIVDVLDVKGGSIFDPACGSGGFFVSALEKLEREGIDINELSIYGQDSDPMAYRLTKMNLIIRGAEGDIRIDDSYHDDKFMDMTFDYVVANPPFNDSEWDANRIKPDDPRLRIGNKKVPVPPNGNANYMWILHFIYHTAPNGKAGFVMANGALSAGNVEGEIRKAIIENDLVYGIVACPPKLFYNVSLPVSLWFIRKEKPDYMKGKVLFINAKNLYKQISRRQNILTEEHIKKIVDKFRMFESGEDEDKINELGFAKVATIDEIAKNGYVLTPGRYVGVKIEDDGIPFEVKMKEYSEELKKLLDEEEKLRNKVKEILDALGF", "soluble on expression in E. coli": "soluble"},
      {"sequence": "MTECIFCHQLKANQLLTQSQYFKVVFDIDPIQKGHLLLISKDHYTSLTQLPKEGHYDLIDLQAALVAKLEQHLPISGVTSVSNDKELMDEGTHFHLHLIPRLTNDSFWEGITINQENWDLTPFLKHL", "soluble on expression in E. coli": "not soluble"},
      {"sequence": "MKIMCKQEYYNQVVQYAESIKDTSLQNCMERLEAWEKNPDRPCEIELYHDWAPYSFGFTQRYPDGSRGIVGGLLYHGSPDESFAVQLTPFKGWQIHT", "soluble on expression in E. coli": "not soluble"},
      {"sequence": "LDRAYLRVENQRYRDKLEAANRELQASLNLLQEDQNAGRQVQMNMLPVTPWSIEGLEFSHRIIPSLYLSGDFVDYFRVDERRVAFYLADVSGHGASSAFVTVLLKFMTTRLLYESRRNGTLPEFKPSEVLAHINRGLINTKLGKHVTMLGGVIDLEKNSLTYSIGGHLPLPVLFVEGQAGYLEGRGLPVGLFDDATYDDRVMELPPSFSLSLFSDGILDVLPGATLKEKEASLPEQVAAAGGTLDGLRQVFGLANLAEMPDDIALLVLSRNLA", "soluble on expression in E. coli": "not soluble"},
      {"sequence": "MGLQTYNAKRSFDKTPEPKGTKAEKPGSSFVIQKHDARRLHYDFRLEMDGVLKSWAVTRGPSLDPEDKRLAVHVEDHPLSYGDFEGVIPKGQYGGGTVIVWDRGIWQPIGDAGKGYRKGHLEFELEGEKLKGRWHLVRMHGKPGESRENWLLIKGDDLEHHHHHH", "soluble on expression in E. coli": "not soluble"},
      {"sequence": "MSLRTVLITGTTSGIGYALSELFAKKECHVILVSRNAMKLSAQKQKLENGNNRIDTITCDLEQTNAAEIIYKSIKQNGWQVDILVNNAGFNEAGLFSETDATCEQGMINLHINFVTDMMKLFIPEMIQNSHGHILNVGSTGSYIACPKDAVYAASKAYILHLSKAVHAELKGTGVTVTTLCPGSTRTEFAHKAKIEHTLLFKIFVMSPHKVALSGLRAMEKGKSVIIPGLYNKILVLCSRLLPYSFIGWMTKKMLEGHHHHHH", "soluble on expression in E. coli": "not soluble"},
      {"sequence": "MKPVKAKCEVCEHMFRVQMLTARLSNRVDKHYFICPSCKTEFISYYSNREMRQLQKEISNLYKGFRTCYTKEQAKVIQAKIDKKDLEFKWLRDILRTEIENNLPN", "soluble on expression in E. coli": "not soluble"}
    ]}
  ]
}
